Each block holds one molecule with its values, some of them ahead of it.
Legend:
[1] = molecular target: T1, RTEL1 CT-L (entire C-terminal region) (Homo sapiens) (UniProt Q9NZ71); assay: EMSA; conditions: 0.5 mM Mg2+, 20 mM Tris pH 7.5, 50 mM KCl, 0.5 mM MgCl2, 10% glycerol, 0.1% Igepal, 10 nM substrate, EMSA at room temperature 15 min (0-160 nM protein), FA at 25 C …
T1 sequence (Q9NZ71 whole entry, looked up): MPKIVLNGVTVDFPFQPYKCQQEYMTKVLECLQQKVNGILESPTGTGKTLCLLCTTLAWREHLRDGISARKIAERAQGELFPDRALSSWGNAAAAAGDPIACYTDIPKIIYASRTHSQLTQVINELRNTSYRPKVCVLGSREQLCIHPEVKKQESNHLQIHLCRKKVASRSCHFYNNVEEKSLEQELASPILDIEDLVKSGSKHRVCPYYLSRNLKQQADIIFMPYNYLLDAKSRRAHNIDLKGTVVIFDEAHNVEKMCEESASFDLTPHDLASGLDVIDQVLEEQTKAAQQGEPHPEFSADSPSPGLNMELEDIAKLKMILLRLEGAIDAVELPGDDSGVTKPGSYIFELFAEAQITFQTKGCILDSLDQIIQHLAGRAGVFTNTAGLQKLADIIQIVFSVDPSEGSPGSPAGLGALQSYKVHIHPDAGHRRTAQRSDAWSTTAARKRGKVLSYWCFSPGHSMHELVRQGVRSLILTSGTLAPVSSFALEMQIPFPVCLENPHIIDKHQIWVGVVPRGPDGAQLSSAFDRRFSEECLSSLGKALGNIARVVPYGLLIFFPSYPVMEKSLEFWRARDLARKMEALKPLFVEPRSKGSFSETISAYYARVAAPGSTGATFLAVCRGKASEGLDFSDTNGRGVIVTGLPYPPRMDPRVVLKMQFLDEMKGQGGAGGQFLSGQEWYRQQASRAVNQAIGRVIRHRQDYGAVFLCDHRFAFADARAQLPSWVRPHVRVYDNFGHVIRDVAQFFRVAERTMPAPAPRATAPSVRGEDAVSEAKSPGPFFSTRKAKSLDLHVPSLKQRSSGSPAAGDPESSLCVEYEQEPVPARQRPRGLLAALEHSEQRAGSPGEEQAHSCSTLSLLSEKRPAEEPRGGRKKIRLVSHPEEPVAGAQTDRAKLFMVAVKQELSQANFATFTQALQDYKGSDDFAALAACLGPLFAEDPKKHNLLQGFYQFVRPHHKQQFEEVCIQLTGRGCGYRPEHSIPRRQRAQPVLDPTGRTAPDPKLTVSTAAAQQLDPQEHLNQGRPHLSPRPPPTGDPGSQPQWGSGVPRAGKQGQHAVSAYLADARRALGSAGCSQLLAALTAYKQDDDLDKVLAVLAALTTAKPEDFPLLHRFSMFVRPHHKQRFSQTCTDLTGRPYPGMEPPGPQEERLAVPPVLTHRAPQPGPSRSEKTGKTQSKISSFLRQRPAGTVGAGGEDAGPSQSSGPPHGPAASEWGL

[2] = molecular target: T2, RTEL1 HHD1-2 (Homo sapiens) (UniProt Q9NZ71); assay: fluorescence anisotropy; conditions: 0.5 mM Mg2+; 20 mM Tris pH 7.5, 50 mM KCl, 0.5 mM MgCl2, 10% glycerol, 0.1% Igepal, 10 nM substrate; EMSA at room temperature 15 min (0-160 nM protein), FA at 25 C …
T2 sequence: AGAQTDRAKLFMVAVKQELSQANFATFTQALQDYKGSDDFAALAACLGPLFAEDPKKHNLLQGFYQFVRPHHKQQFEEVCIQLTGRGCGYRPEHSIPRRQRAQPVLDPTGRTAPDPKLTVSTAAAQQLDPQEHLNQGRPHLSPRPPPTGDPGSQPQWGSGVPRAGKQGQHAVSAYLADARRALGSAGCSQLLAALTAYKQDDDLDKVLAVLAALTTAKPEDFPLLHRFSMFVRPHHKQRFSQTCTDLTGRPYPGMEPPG

[3] = molecular target: T3, human PCNA (Proliferating Cell Nuclear Antigen) (human, UniProt P12004 1-261, uniformly 2H,13C,15N labelled (for NMR experiments)); assay: ITC; 16.8 uM PCNA in the cell, 282 uM PIP1 peptide in the syringe; 35 °C; PBS pH 7.0, 1 mM TCEP; fitted to a 1:1 binding model (one set of identical sites); conditions: both partners purified
T3 construct: 3-residue N-terminal extension left after HRV 3C cleavage, preceding the native initial methionine; human PCNA, UniProt P12004, from the native initial methionine; The methods describe only the isotopically labelled PCNA made for NMR; not shown: His6, N-terminal, cleaved

[4] = molecular target: T4, RTEL1 HHD2 (Homo sapiens, UniProt Q9NZ71 1053-1147); assay: fluorescence anisotropy; 0.5 mM Mg2+; 20 mM Tris pH 7.5, 50 mM KCl, 0.5 mM MgCl2, 10% glycerol, 0.1% Igepal, 10 nM substrate; EMSA at room temperature 15 min (0-160 nM protein), FA at 25 C (0-2500 nM protein); Hill-slope fit; conditions: protein: recombinant, tags: N-terminal 6His-Trx removed by TEV
T4 sequence: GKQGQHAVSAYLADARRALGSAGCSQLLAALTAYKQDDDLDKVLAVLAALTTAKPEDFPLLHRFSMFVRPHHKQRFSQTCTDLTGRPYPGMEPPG

T3 sequence (P12004 other isoform, or with tags, fused parts or gaps): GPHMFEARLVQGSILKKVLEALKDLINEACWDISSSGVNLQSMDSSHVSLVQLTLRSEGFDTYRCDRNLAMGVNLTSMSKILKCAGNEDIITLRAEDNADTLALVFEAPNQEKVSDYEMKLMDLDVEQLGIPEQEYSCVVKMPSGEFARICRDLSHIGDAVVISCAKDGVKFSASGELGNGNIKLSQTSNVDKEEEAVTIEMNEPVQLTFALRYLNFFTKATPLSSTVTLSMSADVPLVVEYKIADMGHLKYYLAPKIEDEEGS

Molecule: CTACTACCCCCACCCTCACAACC (double strand) [dsDNA (D1B:D3B)]
Kd [1]: 63 nM

Molecule: CTACTACCCCCACCCTCACAACCTTTTTTTTTTTTTTT / TTTTTTTTTTTTTTTGGTTGTGAGGGTGGGGGTAGTAG [DNA fork (D1L:D3L)]
Kd [1]: 43 nM
Kd [2]: 155 nM

Molecule: CTACTACCCCCACCCTCACAACCTTTTTTTTTTTTTTT / UUUUUUUUUUUUUUUGGUUGUGAGGGUGGGGGUA [DNA/RNA fork (D1L:R3L)]
Kd [1]: 52 nM

Molecule: CTACTACCCCCACCCTCACAACCTTTTTTTTTTTTTTT [ssDNA]
Kd [1]: 40 nM
Kd [2]: 247 nM

Molecule: CUACCCCCACCCUCACAACCUUUUUUUUUUUUUUU / UUUUUUUUUUUUUUUGGUUGUGAGGGUGGGGGUA [RNA fork (R1L:R3L)]
Kd [1]: 51 nM
Kd [2]: 273 nM

Molecule: CUACCCCCACCCUCACAACCUUUUUUUUUUUUUUU [ssRNA]
Kd [1]: 46 nM
Kd [2]: 192 nM

Molecule: GTACCCGGGGATCCTCTAGAGTCGACCTGCAGGCATGCAAGCTTGGCACTGGCCGTCGTTTTACAAC / GTTGTAAAACGACGGCCAGTGCCTTTTCCCAGCCTCAATCTCATCACTCTAGAGGATCCCCGGGTAC / GCTTGCATGCCTGCAGGCCAGCCTCAATCTCATC [D-loop (D4:D9:D11)]
Kd [1]: 11 nM
Kd [2]: 327 nM

Molecule: GTACCCGGGGATCCTCTAGAGTCGACCTGCAGGCATGCAAGCTTGGCACTGGCCGTCGTTTTACAAC / GTTGTAAAACGACGGCCAGTGCCTTTTCCCAGCCTCAATCTCATCACTCTAGAGGATCCCCGGGTAC / GCUUGCAUGCCUGCAGGCCAGCCUCAAUCUCAUCUUUUU [R-loop (R4:D9:D11)]
Kd [1]: 10 nM
Kd [2]: 160 nM

Molecule: GTACCCGGGGATCCTCTAGAGTCGACCTGCAGGCATGCAAGCTTGGCACTGGCCGTCGTTTTACAAC / GTTGTAAAACGACGGCCAGTGCCTTTTCCCAGCCTCAATCTCATCACTCTAGAGGATCCCCGGGTAC [Bubble (D9:D11)]
Kd [1]: 27 nM

Molecule: TGAGGGTGGGTAGGGTGGGTAA [1XAV c-Myc promoter G4]
Kd ([1]; K+): 57 nM

Molecule: TTAGGGTTAGGGTTAGGGTTAGGGTT [2JPZ telomeric G4]
Kd ([1]; K+): 26 nM

Molecule: UUAGGGUUAGGGUUAGGGUUAGGG [TERRA G4]
Kd ([1]; K+): 10 nM
Kd [2]: 38 nM

Kd [3]: 53300 ± 7200 nM
Molecule: QSKISSFL [RTEL1 PIP1 peptide (canonical PIP-box of human RTEL1)]

B1: RNA fork (R1L:R3L) (dsRNA)
RNA 1: CUACCCCCACCCUCACAACCUUUUUUUUUUUUUUU
RNA 2: UUUUUUUUUUUUUUUGGUUGUGAGGGUGGGGGUA
Kd ([4]; label: 5' 6-FAM on strand 1, fork with U15 arms (3' on strand 1, 5' on strand 2), end as printed not fully blunt): 512 ± 104 nM

Molecule: UUAGGGUUAGGGUUAGGGUUAGGG (structured_RNA) [TERRA G4]
Kd ([4]; label: 5' 6-FAM, G4): 489 ± 124 nM

B2: DNA fork (D1L:D3L) (dsDNA)
DNA 1: CTACTACCCCCACCCTCACAACCTTTTTTTTTTTTTTT
DNA 2: TTTTTTTTTTTTTTTGGTTGTGAGGGTGGGGGTAGTAG
Kd ([4]; label: 5' 6-FAM on strand 1, fork: 23 bp duplex, T15 arms (3' on strand 1, 5' on strand 2)): 254 ± 52 nM

— article PMC11344278, “Structural and biochemical characterization of the C‐terminal region of the human RTEL1 helicase” (Protein Science : A Publication of the Protein Society, 2024)
